The source of these data is patent US20200123233A1.

Test [1] addresses FTM-NN (membrane anchorless form of the Long fusion protein, 70 kDa) (human respiratory syncytial virus, strain Long) (UniProt P12568).
Test [2] concerns the target F protein of RSV A-2 (human respiratory syncytial virus, strain A-2) (UniProt P03420). Put plainly: cell-based or functional assay.
For test [3], the target named is F protein of RSV B-1 (human respiratory syncytial virus, strain B-1) (UniProt P13843). The experiment in a line: cell-based or functional assay.
For test [4], the target named is F protein of RSV Long (RSV LONG M-2) (human respiratory syncytial virus, strain Long) (UniProt P12568). The experiment in a line: cell-based or functional assay.
The target of test [5] is FTM-NN (membrane anchorless form of the Long fusion protein, 70 kDa) (human respiratory syncytial virus, strain Long) (UniProt P12568). Put plainly: SPR (Biacore), FTM-NN immobilised.
The target in test [6] is F protein of hRSV strain B-1 (human respiratory syncytial virus, strain B-1 (ATCC VR-1580)) (UniProt P13843). The experiment in a line: cell-based or functional assay.
Test [7] has as its target F protein of hRSV strain Long (human respiratory syncytial virus, strain Long (ATCC VR-26)) (UniProt P12568). Put plainly: cell-based or functional assay.

For Synagis Fab, in test [1], the half-inhibitory concentration (IC50) (usually the concentration at which inhibition is half-maximal) is 0.597 nM.

Take “Synagis® (Palivizumab, MedImmune, humanized monoclonal antibody)”: in test [2], the RSV neutralization IC50 (nM) (n = 2), A-2 amounted to 2.5 nM. The same substance came in with an RSV neutralization IC50 (nM) (n = 2), B1 in test [3] of 1.7 nM. Also, in test [4], the RSV neutralization IC50 (nM) (n = 2), Long came out at 4 nM. Further, in test [5], the Kd (in general, the concentration at which binding is half-saturated) was found to be 0.64 nM; the koff (commonly the rate constant with which the complex falls apart) was 0.00018 s⁻¹; the kon – broadly, the second-order rate constant of association – was 280000 M⁻¹ s⁻¹.

Substance 101F Fab (WO 06/050280) had an IC50 in test [1] of 1.12 nM.

Turning to “Synagis (Palivizumab, MedImmune, humanized monoclonal antibody)”, in test [6], the Neutralization IC50 (nM), B-1 (first assay) was determined as 2.1 nM and the Neutralization IC50 (nM), B-1 (second assay) is 2.9 nM. In test [7], this substance gave a Neutralization IC50 (nM), Long (first assay) of 7.3 nM and a Neutralization IC50 (nM), Long (second assay) of 6 nM.

“Numax Fab (Motavizumab or MEDI-524; WO 06/050166)”: the IC50 in test [1] turned out to be 0.086 nM.
